Measured values: PMC2629652 (FEBS letters, 2008)
Read-outs that look alike come from different tables or passages of the source.

What was measured:
FprA1 = molecular target: T1, FprA1 (Clostridium acetobutylicum, UniProt Q97K92); assay: TLC of the flavin cofactor; type: binding; conditions: co-purified oxidized flavin, 378 and 450 nm bands
T1 sequence (Q97K92 2-392): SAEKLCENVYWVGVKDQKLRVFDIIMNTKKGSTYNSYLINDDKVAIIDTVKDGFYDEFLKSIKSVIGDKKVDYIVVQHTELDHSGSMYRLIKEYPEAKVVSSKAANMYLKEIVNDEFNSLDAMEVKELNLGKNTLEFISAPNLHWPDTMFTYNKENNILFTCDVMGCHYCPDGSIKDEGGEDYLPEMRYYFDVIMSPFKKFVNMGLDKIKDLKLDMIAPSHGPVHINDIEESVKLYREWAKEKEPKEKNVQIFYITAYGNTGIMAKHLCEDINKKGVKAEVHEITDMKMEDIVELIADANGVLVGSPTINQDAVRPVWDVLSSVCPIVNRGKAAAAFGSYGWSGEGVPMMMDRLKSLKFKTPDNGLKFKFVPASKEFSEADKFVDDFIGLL

SEC [1] = molecular target: the molecule itself; assay: SEC
SEC [2] = molecular target: the molecule itself; assay: SEC; remark: listed apart in the source

Row | Molecule | TLC of the flavin cofactor; UV-visible absorption of purified protein (FprA1) | stoichiometry N (SEC [1]) | stoichiometry N (SEC [2])
1 | Cc1cc2nc3c(=O)[nH]c(=O)nc-3n(C[C@H](O)[C@H](O)[C@H](O)COP(=O)(O)O)c2cc1C [FMN] | TLC analysis identified FMN as the flavin cofactor in both FprA1 and FprA2 | – | –
2 | C. acetobutylicum flavo-diiron protein FprA2 (enzyme, UniProt Q97GC0 1-400, looked up) MPAIKIKDNIFSVGVLNPSLRIFDIIMKTEYGTSYNAYLIKGKKNVLIDTVHGRFFDEYLENIKSVIDPSSIDYVIMNHCEPDHSGSLARLYEVAPQIKVIASNAGKIYLKNITNKETLDVKAVKTNDTLDIGNGKVLKFAIAPFLHWPDSMFTILEEDKIAFTCDFLGCHFCEPRMFDTKITYMPKYEKSFKEYYDAIFSPFKPYVVKGLDILDALDLDFIATSHGPILTREGLLAASKQKYRDLSSEIQSTTKYIPIFYCSAYGNTEILANEIASGIKSVLNDANIEMLDIINYDYSDLKEKINICDAFMLGTPTINKDALFPIWELIGGIDAVNCKNKPASAFGSFGWSGEAIPFVISRLKELKLKVFQDGFTCLFVPSEDDIKKAFKFGEDFAKSI | – | 2 | 4
3 | C. acetobutylicum flavo-diiron protein FprA1 (enzyme, UniProt Q97K92 1-392, looked up) MSAEKLCENVYWVGVKDQKLRVFDIIMNTKKGSTYNSYLINDDKVAIIDTVKDGFYDEFLKSIKSVIGDKKVDYIVVQHTELDHSGSMYRLIKEYPEAKVVSSKAANMYLKEIVNDEFNSLDAMEVKELNLGKNTLEFISAPNLHWPDTMFTYNKENNILFTCDVMGCHYCPDGSIKDEGGEDYLPEMRYYFDVIMSPFKKFVNMGLDKIKDLKLDMIAPSHGPVHINDIEESVKLYREWAKEKEPKEKNVQIFYITAYGNTGIMAKHLCEDINKKGVKAEVHEITDMKMEDIVELIADANGVLVGSPTINQDAVRPVWDVLSSVCPIVNRGKAAAAFGSYGWSGEGVPMMMDRLKSLKFKTPDNGLKFKFVPASKEFSEADKFVDDFIGLL | – | – | 2
